Test results: patent US20110059095A1 (Regeneron, published 2011)
Where no end group is shown, it is not given here. The star is where a group is joined. Biotin = O=C1N[C@H]2[C@H](CS[C@H]2CCCCC(=O)*)N1

T1: Peptide A (human PAR-2), unbiotinylated (Human)
T1 construct: also called Peptide A No Biotin
T1 peptide: GTNRSSKGRSLIGKVDGT

T2: Peptide A (human PAR-2), N-terminal biotinylated (Human, N-terminal biotin via G4S linker)
T2 construct: also called Peptide A N-Term
T2 peptide: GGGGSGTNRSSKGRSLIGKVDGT

T3: Peptide B (human PAR-2), unbiotinylated (Human)
T3 construct: also called Peptide B No Biotin
T3 peptide: SLIGKVDGTSHVTG

T4: Peptide B (human PAR-2), N-terminal biotinylated (Human)
T4 construct: also called Peptide B N-Term
T4 peptide: Biotin-GGGGSSLIGKVDGTSHVTG

T5: Peptide B (human PAR-2), C-terminal biotinylated (Human, not fully specified)
T5 construct: also called Peptide B C-Term
T5 peptide: SLIGKVDGTSHVTGGGGGS-biotin

T6: Peptide C (human PAR-2), N-terminal biotinylated (Human)
T6 construct: also called Peptide C N-Term
T6 peptide: Biotin-GGGGSSLIGKV

T7: Peptide C (human PAR-2), C-terminal biotinylated (Human)
T7 construct: also called Peptide C C-Term
T7 peptide: SLIGKVGGGGS-biotin


Columns and labels:
[1] = molecular target: T1, Peptide A (human PAR-2), unbiotinylated; assay: peptide ELISA
Protocol: (§1) Anti-PAR-2 antibodies were tested for their ability to bind to the PAR-2 peptides. Various PAR-2 Peptides (Table 3) were coated onto 96-well plates at a concentration of 2 μg/ml and incubated overnight followed by blocking in a suitable blocking agent for one hour. […] Purified anti-PAR-2 antibodies were added to the plate coated with PAR-2 peptides to a final concentration ranging from 0.2 to 2.0 μg/ml and incubated for one hour at room temperature. Detection of bound antibodies was determined with Horse-Radish Peroxidase (HRP) conjugated anti-mouse or human IgG (Jackson Immuno Research Lab, West Grove, Pa.) and developed by standard colorimetric response using tetramethylbenzidine (TMB) substrate. Absorbance was read at OD₄₅₀ for 0.1 second.

[2] = molecular target: T2, Peptide A (human PAR-2), N-terminal …; assay: peptide ELISA
Protocol: as §1

[3] = molecular target: T8, Peptide A (human PAR-2), C-terminal biotinylated (Human, C-terminal biotin via G4S linker); assay: peptide ELISA
T8 construct: also called Peptide A C-Term
Protocol: as §1

[4] = molecular target: T3, Peptide B (human PAR-2), unbiotinylated; assay: peptide ELISA
Protocol: as §1

[5] = molecular target: T4, Peptide B (human PAR-2), N-terminal …; assay: peptide ELISA
Protocol: as §1

[6] = molecular target: T5, Peptide B (human PAR-2), C-terminal …; assay: peptide ELISA
Protocol: as §1

[7] = molecular target: T6, Peptide C (human PAR-2), N-terminal …; assay: peptide ELISA
Protocol: as §1

[8] = molecular target: T7, Peptide C (human PAR-2), C-terminal …; assay: peptide ELISA
Protocol: as §1

full length human PAR-2 = molecular target: T9, full length human PAR-2 (human, UniProt P55085 26-397); assay: cell ELISA, 10 ug/ml antibody
T9 construct: overexpressed on HEK293-derived 293/D9 cells; also called 293/D9/hPAR-2rec cells
Text: HEK293 cells were transfected with an NF-κB-luciferase-IRES-eGFP reporter plasmid. […] A clonal cell line, named D9, having low background levels of luciferase activity and high levels of eGFP when induced with IL-1β was made by a series of successive sorts of cell populations using flow cytometry. The 293/D9 cell line was then separately transfected with human PAR-2 or mouse PAR-2 to create the stable cell lines 293/D9/h PAR-2rec and 293/D9/m PAR-2rec, respectively.
Binding of anti-PAR-2 antibodies to 293/D9/hPAR-2rec cells was determined by ELISA. 293/D9 and 293/D9/hPAR-2rec cells were plated at a density of 5×10⁴ cells/well in media and incubated overnight at 37° C. and 5% CO₂. Purified antibody was added to the cells to a final concentration of 10 μg/ml and incubated at room temperature for one hour. Cells were then fixed and washed before detection of bound antibodies with HRP conjugated anti-mouse IgG and developed by standard colorimetric response using TMB substrate. Absorbance was read at OD₄₅₀ for 0.1 second.

[9] = molecular target: T1, Peptide A (human PAR-2), unbiotinylated; assay: SPR, antibody captured, steady state
Protocol: (§2) Equilibrium dissociation constants (KD values) for antigen binding to selected purified PAR-2 antibodies were determined by surface kinetics using a real-time surface plasmon resonance biosensor assay. Antibody was captured on either a rabbit anti-mouse IgG polyclonal antibody (GE Healthcare, Piscataway, N.J.) surface or a goat anti-human IgG polyclonal antibody (Jackson Immuno Research Lab, West Grove, Pa.) surface created through direct amine chemical coupling to a BIACORE™ CM5 sensor chip to form a captured antibody surface. […] Antigen-antibody binding and dissociation were monitored in real time at room temperature. Kinetic analysis was performed to calculate KD and half-life of antigen/antibody complex dissociation (Table 10). For those antibodies where no T_{1/2} value is shown, steady state analysis was used to calculate the KD value. NB: no binding observed under current experimental conditions. ND: not determined.

[10] = molecular target: T1, Peptide A (human PAR-2), unbiotinylated; assay: SPR, antibody captured
Protocol: as §2

[11] = molecular target: T3, Peptide B (human PAR-2), unbiotinylated; assay: SPR, antibody captured
Protocol: as §2

[12] = molecular target: T8, Peptide A (human PAR-2), C-terminal …; assay: SPR, peptide immobilized
Protocol: (§3) In another series of experiments, equilibrium dissociation constants (KD values) for purified antibody binding to selected biotinylated and unbiotinylated forms of PAR-2 peptides were determined by surface kinetics using a real-time surface plasmon resonance biosensor assay. Neutravidin (Pierce, Rockford, Ill.) was covalently coupled to the surface of a Biacore™ C1 chip or CM5 chip using amine coupling chemistry. Biotinylated (N-Term or C-Term) PAR-2 peptides (Peptides A and B) were immobilized on the surface via the high affinity binding interaction between biotin and the amine coupled Neutravidin.
(§4) In a first experiment using this format, varying concentrations (ranging from 5 to 100 μg/ml) of purified antibody were injected at a rate of 50 μl/min over a surface coated with immobilized peptide at low-density (<1RU) for 300 seconds. Antibody-peptide binding and dissociation was monitored in real time 25° C.

[13] = molecular target: T5, Peptide B (human PAR-2), C-terminal …; assay: SPR, peptide immobilized
Protocol: as §3, §4

T9 sequence (P55085 26-397 G138A limits assumed): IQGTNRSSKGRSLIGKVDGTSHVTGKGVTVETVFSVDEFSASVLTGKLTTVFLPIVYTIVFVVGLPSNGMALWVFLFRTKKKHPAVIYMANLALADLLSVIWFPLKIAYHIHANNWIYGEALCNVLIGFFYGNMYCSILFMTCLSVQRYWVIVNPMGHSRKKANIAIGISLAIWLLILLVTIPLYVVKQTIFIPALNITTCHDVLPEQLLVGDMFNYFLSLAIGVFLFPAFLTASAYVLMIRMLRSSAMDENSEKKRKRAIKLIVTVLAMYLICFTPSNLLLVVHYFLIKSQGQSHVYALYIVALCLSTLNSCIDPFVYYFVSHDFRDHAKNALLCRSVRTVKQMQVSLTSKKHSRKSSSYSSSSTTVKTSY

| OD450 [1] | OD450 [2] | OD450 [3] | OD450 [4] | OD450 [5] | OD450 [6] | OD450 [7] | OD450 [8] | A450 ratio (293/D9/hPAR-2rec to 293/D9 cells) (full length human PAR-2) | Kd [9] | Kd [10] | T1/2 [10] | Kd [11] | T1/2 [11] | Kd [12] | T1/2 [12] | Binder | binding result [13] |
| --- | --- | --- | --- | --- | --- | --- | --- | --- | --- | --- | --- | --- | --- | --- | --- | --- | --- |
| 1 to 4 od | 1 to 4 od | 1 to 4 od | 1 to 4 od | 1 to 4 od | 1 to 4 od | 0 to 0.09 od | 0 to 0.09 od |  |  | 72.8 nM | 4.1 min | 1090 nM | 1.2 min |  |  | H2M611N (antibody, V domains shown, chimeric: human variable, mouse constant domains) VH: EVQLLESGGGLVQPGGSLRLSCAASGFTFSSYAMTWVRQAPGKGLYWVSAISGSGGSAYYADSVKGRFTISRDNSKNTLYLQMNSLRAEDTAVYYCAKEGDSGYDLDYWGRGTLVTVSS VL: DIQMTQSPSSLSASVGDRVTITCRARQGISNYLAWLQQKPGKAPKSLIYAASSLQSGVPSKFSGSGSGTDFTLTISSLQPEDFATYYCQQYKSSPLTFGGGTKVEIK |  |
| 1 to 4 od | 1 to 4 od | 1 to 4 od | 0 to 0.09 od | 0 to 0.09 od | 0 to 0.09 od | 0 to 0.09 od | 0 to 0.09 od | 2.78 | 144 nM |  |  |  |  |  |  | H1M616N (antibody, V domains shown, chimeric: human variable, mouse constant domains) VH: EVQLVESGGGLAQPGRSLRVSCSASGFNFDDYAMHWVRQAPGKGLEWVSGISWNSGSRGYADSVKGRFTISRDNAKNSLYLQMNSLRAEDTALYYCVKENWAFEYWGQGTLVTVSS VL: DIVMTQTPLSSPVTLGQPASISCRSSHSLVHSDGSTYLSWLQQRPGQPPRLLIYKISNRFSGVPDRFSGSGAGTDFTLKISRVEAEDVGLYYCMQATQFPYTFGQGTKLEIK |  |

The next lines start with the binder.

| Binder | OD450 [1] | OD450 [2] | OD450 [3] | OD450 [4] | OD450 [5] | OD450 [6] | OD450 [7] | OD450 [8] | A450 ratio (293/D9/hPAR-2rec to 293/D9 cells) (full length human PAR-2) | Kd [9] | Kd [10] | T1/2 [10] | Kd [11] | T1/2 [11] | Kd [12] | T1/2 [12] | binding result [13] |
| --- | --- | --- | --- | --- | --- | --- | --- | --- | --- | --- | --- | --- | --- | --- | --- | --- | --- |
| H1M615N (antibody, V domains shown, chimeric: human variable, mouse constant domains) VH: EVQLVESGGGVVQPGRSLRLSCAASGFTFDDYTMHWVRQVPGKDLKWVSGITWNGGRKAYADSVKGRFTISRDNAKNSLFLQMNSLRAEDTAFYYCAKEDEAFDYWGQGTLVTVSS VL: not shown | 1 to 4 od | 1 to 4 od | 1 to 4 od | 0 to 0.09 od | 0 to 0.09 od | 0 to 0.09 od | 0 to 0.09 od | 0 to 0.09 od | 2.18 | 162 nM |  |  |  |  |  |  |  |
| H1M590N (antibody, V domains shown, chimeric: human variable, mouse constant domains) VH: EVQLVESGGGLVQPGRSLRLSCAASGFTFDDYAMHWVRQAPGKGLEWVSGITWNSGTMAYADSVKGRFTISRDNAKNSLYLQMNSLRAEDTALYYCAKENWAFDYWGQGTLVTVSS VL: not shown | 1 to 4 od | 1 to 4 od | 1 to 4 od | 0 to 0.09 od | 0 to 0.09 od | 0 to 0.09 od | 0 to 0.09 od | 0 to 0.09 od | 1.81 | 173 nM |  |  |  |  | 1.27 nM | 13 min | no binding (tested: 5 to 100 ug/ml antibody) |
| H1M619N (antibody, V domains shown, chimeric: human variable, mouse constant domains) VH: EVQLVESGGGLVQAGRSLRLSCAASGFTFDDYAMHWVRQAPGKGLEWVSGISWNSGSRGYADSVKGRFTISRDNAKNSLHLQMYSLRAEDTALYYCAKENWSFDYWGQGTLVTVSS VL: DIVMTQTPLSSPVTLGQPASISCRSSQSLVHSDGNTYLSWLQQRPGQPPRLLIYKISYRFSGVPDRFSGSGAGTDFTLKISRVATEDVGVYYCMQATQLPYTFGQGTKLEIK | 1 to 4 od | 1 to 4 od | 1 to 4 od | 0 to 0.09 od | 0 to 0.09 od | 0 to 0.09 od | 0 to 0.09 od | 0 to 0.09 od |  | 164 nM |  |  |  |  |  |  |  |
